This is an account of results in paper PMC8951703, “A multifunctional enolase mediates cytoadhesion and interaction with host plasminogen and fibronectin in Mycoplasma hyorhinis” (Veterinary Research, 2022).

The assay deals with T1, Recombinant M. hyorhinis enolase, wild-type (Mycoplasma hyorhinis (strain HUB-1), UniProt P0DXB0 1-450).
T1 construct: enolase of Mycoplasma hyorhinis strain HUB-1, full-length gene MHR_0469 of GenBank CP002170.1, codon-optimized and synthesized; the C-terminal residues are K451 and K452; also called rEno; rEno WT
The experiment in a line: SPR; plasminogen or fibronectin immobilised on CM5 chips by amine coupling (600 RU); recombinant enolase proteins 0-4000 nM injected at 30 uL/min for 180 s, 20 °C, dissociation 1000 s; 10 mM HEPES, 150 mM NaCl, 3 mM EDTA, 0.05% surfactant P20; Biacore X100. The note with it: both partners purified. (SPR reads the build-up and loss of mass on a sensor chip optically.)

B1: plasminogen (natural protein)
chain: EPLDDYVNTQGASLFSVTKKQLGAGSIEECAAKCEEDEEFTCRAFQYHSKEQQCVIMAENRKSSIIIRMRDVVLFEKKVYLSECKTGNGKNYRGTMSKTKNGITCQKWSSTSPHRPRFSPATHPSEGLEENYCRNPDNDPQGPWCYTTDPEKRYDYCDILECEEECMHCSGENYDGKISKTMSGLECQAWDSQSPHAHGYIPSKFPNKNLKKNYCRNPDRELRPWCFTTDPNKRWELCDIPRCTTPPPSSGPTYQCLKGTGENYRGNVAVTVSGHTCQHWSAQTPHTHNRTPENFPCKNLDENYCRNPDGKRAPWCHTTNSQVRWEYCKIPSCDSSPVSTEQLAPTAPPELTPVVQDCYHGDGQSYRGTSSTTTTGKKCQSWSSMTPHRHQKTPENYPNAGLTMNYCRNPDADKGPWCFTTDPSVRWEYCNLKKCSGTEASVVAPPPVVLLPDVETPSEEDCMFGNGKGYRGKRATTVTGTPCQDWAAQEPHRHSIFTPETNPRAGLEKNYCRNPDGDVGGPWCYTTNPRKLYDYCDVPQCAAPSFDCGKPQVEPKKCPGRVVGGCVAHPHSWPWQVSLRTRFGMHFCGGTLISPEWVLTAAHCLEKSPRPSSYKVILGAHQEVNLEPHVQEIEVSRLFLEPTRKDIALLKLSSPAVITDKVIPACLPSPNYVVADRTECFITGWGETQGTFGAGLLKEAQLPVIENKVCNRYEFLNGRVQSTELCAGHLAGGTDSCQGDSGGPLVCFEKDKYILQGVTSWGLGCARPNKPGVYVRVSRFVTWIEGVMRNN
Broadly, the Kd is the concentration at which binding is half-saturated. Consider B1, for which the Kd was determined as 1.4 ± 0.07 nM.
